Data as given in patent US5458874A, “Method of increasing monocyte chemotaxis with CAP37 and monocyte chemotactic portions thereof” (Emory University, priority 1992, dated 1995).
“Also recorded” adds a separate entry of the source.

Tests used:
human monocytes = test: Monocyte chemotaxis, modified Boyden chamber technique; type: cell-based; settings: for Distance migrated in μm: chemoattractant conc. 10^-9 M
Procedure: Chemotaxis was measured using the modified Boyden chamber technique (Snyderman et al.). The leading front method (Zigmond et al.) was used to assess migration of monocytes and lymphocytes through a 8 μm filter (Millipore Corporation, Bedford, Mass.). PMN chemotaxis was measured using a 3 μm filter (Millipore). The purified CAP37 protein (Example 1) used in chemotaxis assays were endotoxin-free as determined by the Limulus Amoebocyte Lysate Assay (Whittaker Bioproducts, Inc., Walkersville, Md.). The dilutions of CAP37 and N-formyl-methionyl-leucyl-phenylalanine (FMLP) were made in Geys buffer (Gibco) containing 2% endotoxin-free bovine serum albumin (BSA). Geys buffer containing 2% BSA served as the negative control, and a […] solution of FMLP as the positive control.
The chambers were incubated in a humidified atmosphere (6.2% CO2) for 2 hours when testing monocytes and lymphocytes, and for 30 minutes when testing PMNs. The filters were then removed and processed as previously described (Snyderman et al.). The cells were viewed using oil immersion and the distance the cells had migrated into the filter was determined over five different fields on the same slide (Zigmond et al.). Triplicate assays were performed for each experimental point.
The three peptides were tested for chemotactic activity towards monocytes using the modified Boyden Chamber technique described in Example 2. The monocyte chemotactic activity of each peptide fragment at concentrations ranging from 10^-7 to 10^-13 M was compared with Geys buffer (negative control), FMLP 10^-8 M (positive control) and purified CAP37 10^-9 M (positive control). […] The effect of peptide 1 on monocyte chemotaxis is illustrated in Table 2 while the effect of peptide 3 on monocyte chemotaxis is illustrated in Table 3.

monocytes/macrophages = test: In vivo chemotactic assay, intraperitoneal injection, peritoneal exudate cells; parameters: species or system BALB/c mice; settings: for % PMN / % monocytes: i.p., mice, peritoneal exudate
Procedure: Female BALB/c mice (6-8 weeks) (Jackson Laboratory, Bar Harbor, […].) were injected intraperitoneally (i.p.) with 100 ng CAP37 (purified according to the method of the invention) per mouse in 2 ml RPMI-1640 serum-free medium (Mediatech). A control group of mice were injected i.p. with 2 ml brewers thioglycollate (4% w/v) (Difco Laboratories), a known stimulator of inflammatory cells whose action is well documented. A second control group of mice were injected j.p. with 2 ml of RPMI-1640 alone.
At 6, 24, 48 and 72 hours following these i.p. injections, four mice in each group were sacrificed by CO2 anesthesia. Ten ml sterile medium was injected into the peritoneal cavity of each mouse and the abdominal area gently massaged to dislodge the exudate cells. The medium containing the exudate cells was then aspirated from the peritoneal cavity using a 19 gauge needle attached to a syringe. The total number of cells in the peritoneal exudate was determined by counting the cells on a COULTER COUNTER (Coulter Electronics, Hialeah, Fla.: The operation of the COULTER COUNTER is based on electrical conductivity difference between particles and common diluent. Particles act as insulators, diluents as good conductors. The particles, suspended in an electrolyte, are forced through a small aperture through which an electrical current path has been established. As each particle displaces electrolyte in the aperture, a pulse essentially proportional to the particle volume is produced. Thus a 3-dimensional particle volume response is the basis for all sizing, regardless of position or orientation of the particle in solution.) One hundred μl of the peritoneal exudate was cytocentrifuged onto a glass slide and the cells stained with Wright's stain. A differential count of the cells was made by counting the number of monocytes, lymphocytes, neutrophils, basophils and eosinoplils per hundred consecutive cells. These experiments were performed to determine the time course of migration of neutrophils, monocytes, lymphocytes and other cells into the peritoneal cavity, in response to an i.p. injection of CAP37.

Re LPS from Salmonella = test: Neutralization of LPS activity, limulus amebocyte lysate (LAL) assay, Re LPS; type: biochemical
Procedure: Further, the neutralization of LPS activity, as assayed by the limulus amebocyte lysate (LAL) assay, by CAP37 was measured. CAP37 was diluted to the desired concentrations (from 6.2 ng/ml to 500 ng/ml) in geys buffered saline pH 7 (GIBCO). To this wild type LPS (RIBI IMMUNOCHEM) or Re LPS from Salmonella (David Morrison, Kansas Medical Center) was added so that the final concentrations were 0.1, 0.5, 1.0 and 2.0 ng/ml LPS. The tubes were incubated at 37° C. for between 30 to 60 minutes and then assayed in the chromogenic LAL assay, using polymyxin E as a control.
As discussed in Example 11, peptides can be screened for lipopolysaccharide neutralizing capacity using the LAL assay also. The CAP37 peptide was diluted to the desired concentrations (from 125 ng/ml to 4000 ng/ml) in geys buffered saline pH 7 (GIBCO). To this is added the wild type LPS (RIBI IMMUNOCHEM) or Re LPS from Salmonella (David Morrison, Kansas Medical Center) so that the final concentration is 0.1, 0.5, and 1.0 ng/ml LPS. The tubes were incubated at 37° C. for between 30 to 60 minutes and then assayed in the chromogenic LAL assay.

B1: CAP37: granule-associated cationic protein (mol. wt. 37,000 daltons) from human PMN, 222 amino acid mature protein (protein)
chain: IVGGRKARPRQFPFLASIQNQGRHFCGGALIHARFVMTAASCFQSQNPGVSTVVLGAYDLRRRERQSRQTFSISSMSENGYDPQQNLNDLMLLQLDREANLTSSVTILPLPLQNATVEAGTRCQVAGWGSQRSGGRLSRFPRFVNVTVTPEDQCRPNNVCTGVLTRRGGICNGDGGTPLVCEGLAHGVASFSLGPCGRGPDFFTRVALFRDWIDGVLNNPGP
**Q.** Which “Distance migrated in μm” value (human monocytes; Table 2) does the source give for B1 here?
**A.** 78.4 μm

**Q.** And the “Distance migrated in μm” value (human monocytes; Table 3)?
**A.** 73.6 μm

**Q.** What about the “monocyte chemotactic activity (in words)” value (human monocytes; modified Boyden chamber) of the same molecule?
**A.** as effective as FMLP; also recorded: strong chemotactic properties

**Q.** And the “migration of cells into the peritoneal cavity (in words)” value (monocytes/macrophages; 100 ng CAP37 per mouse i.p.)?
**A.** moderately increased the overall numbers of cells; also recorded: potent monocyte chemoattractant capacity

**Q.** What about the “time at which monocytes appeared in the peritoneal cavity” value (monocytes/macrophages; 100 ng CAP37 per mouse i.p.) of the same molecule?
**A.** 24 h

**Q.** What about the “% PMN” value (monocytes/macrophages; 6 hours post injection) of the same molecule?
**A.** 65%

**Q.** And the “% monocytes” value (monocytes/macrophages; 6 hours post injection)?
**A.** 7%

**Q.** What about the “% PMN” value (monocytes/macrophages; 24 hours post injection) of the same molecule?
**A.** dramatic reduction in neutrophils

**Q.** What about the “% monocytes” value (monocytes/macrophages; 24 hours post injection) of the same molecule?
**A.** 27%

**Q.** And the “% PMN” value (monocytes/macrophages; 24 hours post injection, listed as CAP 37)?
**A.** 26%

**Q.** And the “% PMN” value (monocytes/macrophages; 48 hours post injection)?
**A.** 4%

**Q.** What about the “% monocytes” value (monocytes/macrophages; 48 hours post injection) of the same molecule?
**A.** 48%

**Q.** What about the “% PMN” value (monocytes/macrophages; 72 hours post injection) of the same molecule?
**A.** 3%

**Q.** And the “% monocytes” value (monocytes/macrophages; 72 hours post injection)?
**A.** 55%

**Q.** And the “neutralization of Re LPS activity (LAL assay)” value (Re LPS from Salmonella)?
**A.** significantly neutralized LPS activity
